From paper PMC2930068 come the findings set out here.

Usually koff stands for the first-order rate constant of dissociation. A higher koff goes with fast dissociation. Usually Kd stands for the concentration at which binding is half-saturated. In general, kon refers to the rate constant with which the complex forms. Lower therefore signals slow association.

Like-named read-outs stand apart in the source and are kept apart here.

For experiment [1], the target named is full-length importin-α5 with C-terminal Strep-tag (human) (UniProt P52294). In words: SEC. On the technique in general: Size exclusion chromatography separates by hydrodynamic size, large species first.
Another experiment deals with STAT1 (UniProt P42224). In words: sedimentation velocity analytical ultracentrifugation. Conditions: reference: uSTAT1; sites Y701.
The target in experiment [2] is GST-importin α5 (res. 1-538) (human) (UniProt P52294). As to the kind of experiment: SPR.
Experiment [3] has as its target GST-importin α5 (1-538) Tyr476Gly (human) (UniProt P52294). In words: SPR. (In general: In SPR one partner is held on a chip, and binding of the other changes the refractive index at the surface.)
For experiment [4] the target is unchanged. As to the kind of experiment: SPR. This is another data set of the same source.
In experiment [5] the target is GST-importin α1/α5 (res. 1-446 of α1/449-538 of α5) (human) (UniProt P52292). As to the kind of experiment: SPR.
Experiment [6] concerns the target GST-importin α5 (res. 1-538) (human) (UniProt P52294). In words: SPR. The source holds these as a separate data set.
The target in experiment [7] is importin α5, GST-tag removed (human) (UniProt P52294). In words: AUC.
importin α5, GST-tag removed (human), sequence (P52294 whole entry): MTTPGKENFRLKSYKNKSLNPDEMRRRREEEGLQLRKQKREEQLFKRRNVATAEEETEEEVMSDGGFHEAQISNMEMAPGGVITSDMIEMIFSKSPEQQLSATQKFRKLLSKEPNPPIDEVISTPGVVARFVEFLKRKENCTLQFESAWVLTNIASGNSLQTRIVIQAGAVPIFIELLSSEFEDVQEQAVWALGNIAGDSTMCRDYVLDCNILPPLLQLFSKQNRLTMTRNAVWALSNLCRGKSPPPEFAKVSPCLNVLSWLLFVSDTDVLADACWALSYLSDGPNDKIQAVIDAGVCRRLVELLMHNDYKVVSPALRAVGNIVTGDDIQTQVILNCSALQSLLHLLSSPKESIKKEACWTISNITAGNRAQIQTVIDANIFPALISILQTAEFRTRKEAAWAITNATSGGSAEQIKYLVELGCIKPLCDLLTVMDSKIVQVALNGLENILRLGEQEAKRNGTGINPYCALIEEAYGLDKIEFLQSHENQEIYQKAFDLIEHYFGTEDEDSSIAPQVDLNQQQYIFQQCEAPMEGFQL

GST-importin α5 (1-538) Tyr476Gly (human), sequence (P52294 whole entry Y476G): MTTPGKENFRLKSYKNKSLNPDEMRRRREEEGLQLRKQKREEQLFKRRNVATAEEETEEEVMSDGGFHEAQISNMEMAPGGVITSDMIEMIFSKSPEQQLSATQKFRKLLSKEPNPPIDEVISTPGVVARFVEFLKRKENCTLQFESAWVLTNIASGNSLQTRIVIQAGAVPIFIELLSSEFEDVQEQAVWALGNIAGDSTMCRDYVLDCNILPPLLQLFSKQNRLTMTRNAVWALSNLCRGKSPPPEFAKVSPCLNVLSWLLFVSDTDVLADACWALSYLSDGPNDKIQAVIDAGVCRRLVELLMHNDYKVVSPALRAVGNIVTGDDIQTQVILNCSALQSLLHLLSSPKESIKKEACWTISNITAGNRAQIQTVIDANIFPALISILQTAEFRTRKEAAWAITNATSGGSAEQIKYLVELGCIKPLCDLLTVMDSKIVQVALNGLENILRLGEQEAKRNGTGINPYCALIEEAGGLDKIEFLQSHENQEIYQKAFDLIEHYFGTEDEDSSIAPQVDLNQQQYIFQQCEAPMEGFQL
GST-importin α5 (res. 1-538) (human), sequence (P52294 whole entry): as the sequence (P52294 whole entry) above
STAT1 (UniProt P42224), sequence (P42224 whole entry): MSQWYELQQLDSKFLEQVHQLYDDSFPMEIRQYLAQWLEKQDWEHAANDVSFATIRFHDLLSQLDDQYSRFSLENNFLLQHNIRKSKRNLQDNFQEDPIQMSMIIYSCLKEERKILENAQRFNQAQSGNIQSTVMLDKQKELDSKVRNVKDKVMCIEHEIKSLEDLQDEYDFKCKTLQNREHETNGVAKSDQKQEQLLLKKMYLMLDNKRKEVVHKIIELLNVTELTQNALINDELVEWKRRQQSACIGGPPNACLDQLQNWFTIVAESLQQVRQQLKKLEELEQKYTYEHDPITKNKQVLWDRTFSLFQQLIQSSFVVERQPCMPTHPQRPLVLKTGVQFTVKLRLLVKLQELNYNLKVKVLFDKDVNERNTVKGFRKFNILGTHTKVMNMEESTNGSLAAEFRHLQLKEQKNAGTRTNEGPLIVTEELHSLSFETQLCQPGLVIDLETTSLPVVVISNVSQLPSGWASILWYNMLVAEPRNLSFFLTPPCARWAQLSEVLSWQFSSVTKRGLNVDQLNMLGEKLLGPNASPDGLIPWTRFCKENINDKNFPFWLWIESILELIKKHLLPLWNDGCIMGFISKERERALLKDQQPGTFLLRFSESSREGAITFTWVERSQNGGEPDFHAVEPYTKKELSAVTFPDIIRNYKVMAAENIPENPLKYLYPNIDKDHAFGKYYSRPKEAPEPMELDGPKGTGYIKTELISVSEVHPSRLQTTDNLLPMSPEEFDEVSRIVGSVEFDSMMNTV
STAT1 (from UniProt P42224) pSTAT1, sequence (P42224 whole entry, change not shown): as the sequence (P42224 whole entry) above
phosphorylated-Tyr701 STAT1 (1-712), N-terminal 6-histidine tag, sequence (P42224 1-712): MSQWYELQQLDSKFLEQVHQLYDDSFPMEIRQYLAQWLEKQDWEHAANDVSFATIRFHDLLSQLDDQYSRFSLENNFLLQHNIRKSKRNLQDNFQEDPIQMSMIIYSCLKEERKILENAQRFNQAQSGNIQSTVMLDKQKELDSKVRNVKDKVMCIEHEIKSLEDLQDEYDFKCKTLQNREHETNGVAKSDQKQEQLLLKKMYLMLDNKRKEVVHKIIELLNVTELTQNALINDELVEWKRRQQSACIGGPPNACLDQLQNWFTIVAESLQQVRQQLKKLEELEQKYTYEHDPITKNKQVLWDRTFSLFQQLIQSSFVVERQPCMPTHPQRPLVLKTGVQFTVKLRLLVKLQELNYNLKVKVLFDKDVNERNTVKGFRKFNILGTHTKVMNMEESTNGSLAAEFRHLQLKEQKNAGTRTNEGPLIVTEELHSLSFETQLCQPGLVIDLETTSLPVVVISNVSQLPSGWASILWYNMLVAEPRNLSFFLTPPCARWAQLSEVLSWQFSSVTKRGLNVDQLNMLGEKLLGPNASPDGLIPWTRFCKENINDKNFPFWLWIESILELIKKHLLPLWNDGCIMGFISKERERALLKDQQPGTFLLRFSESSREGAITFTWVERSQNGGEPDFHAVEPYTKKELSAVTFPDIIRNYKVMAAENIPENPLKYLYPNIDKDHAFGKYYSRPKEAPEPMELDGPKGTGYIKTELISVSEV
full-length importin-α5 with C-terminal Strep-tag (human), sequence (P52294 whole entry): as the sequence (P52294 whole entry) above

In the case of “Strep-tagged phosphorylated-Tyr701 STAT1 (from UniProt P42224 1-750) (natural protein)”, the stoichiometry N (pSTAT1 dimer per importin α5 molecule) in experiment [1] was 1.

Take STAT1 (from UniProt P42224) pSTAT1: the “other: molecular weight” value with STAT1 is on record as “same; reference ~180”.

For the substance “phosphorylated-Tyr701 STAT1 (1-712), N-terminal 6-histidine tag (from UniProt P42224-2 1-712) (natural protein)”, the koff in experiment [2] amounted to 0.0183 s⁻¹; in experiment [3], 289 s⁻¹; in experiment [4], 0.289 s⁻¹; in experiment [6], 0.0189 s⁻¹. Also, the dissociation constant Kd was 4300 nM in experiment [4], 542 nM in experiment [5] and 191 nM in experiment [6]. Further, the values for the kon in experiment [4] and in experiment [6] were 66600 M⁻¹ s⁻¹ and 98800 M⁻¹ s⁻¹, respectively. The substance further displayed a stoichiometry N (pSTAT1 dimer per importin α5 molecule) in experiment [7] of 1.
